B1: Azoarcus group I ribozyme (parent)
chain: GUGCCUUGCGCCGGGAAACCACGCAAGGGAUGGUGUCAAAUUCGGCGAAACCUAAGCGCCCGCCCGGGCGUAUGGCAACGCCGAGCCAAGCUUCGGCGCCUGCGCCGAUGAAGGUGUAGAGACUAGACGGCACCCACCUAAGGCAAACGCUAUGGUGAAGGCAUAGUCCAGGGAGUGGCGAAAGUCACACAAACCGG

Variants of: B1
Experiment: reverse-splicing fitness (ratio to wild type); higher = more active; in vitro selection; Mg2+ level not given
In short: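 An in vitro group I ribozyme library with randomized positions was T7-transcribed and gel-purified. In triplicate, 10 pmol RNA in EPPS pH 7.5 was reacted with 50 pmoles of a 30-nt RNA substrate for 1 h at 37 °C across several added MgCl2 levels (1–48 mM), then stopped with EDTA. Products were reverse transcribed from a substrate-complementary primer, PCR-amplified and sequenced (HiSeq 4000). Fitness is a variant's read proportion after selection over that before, normalised to wild type.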
Variant C82U A111G A145G C150A has a reverse-splicing fitness of 0.0568. In the case of C82U A111U A120C, the reverse-splicing fitness is reported as 0.0288. C82U A111G A145C C150U C169G showed a reverse-splicing fitness of 0.00755. For C82U A111G A145C C150U C169A, the reverse-splicing fitness was 0.00735. C82U A111G A145C C150U C169U showed a reverse-splicing fitness of 0.00947. C82U A111U A120C A145C C150U showed a reverse-splicing fitness of 0.0119. C82U A111U A120C A145C C150A gave a reverse-splicing fitness of 0.00788. In the case of C82U A111U A120C A145C C150G, the reverse-splicing fitness is reported as 0.00726. Variant C82U A111U A120C A145C C150U C169A U176C has a reverse-splicing fitness of 0.00517. In the case of C82U A111U A120C A145C C150U C169A U176A, the reverse-splicing fitness is reported as 0.0088. Work on C82U A111U A120C A145C C150U C169A U176G yielded a reverse-splicing fitness of 0.00569. Work on C82U A111G A145U C150U U176G yielded a reverse-splicing fitness of 0.0347. Variant C82U A111G A145U C150U U176A has a reverse-splicing fitness of 0.123. C82U A111G A145U C150U U176C showed a reverse-splicing fitness of 0.172. For C82U A111G C150G C169U U176C, the reverse-splicing fitness was 0.0122. With C82U A111G C150G C169U U176A the reverse-splicing fitness was 0.00707. For C82U A111G C150G C169U U176G, the reverse-splicing fitness was 0.00511. In the case of C82U A111G C150U C169A U176C, the reverse-splicing fitness is reported as 0.0135. C82U A111G C150U C169A U176A showed a reverse-splicing fitness of 0.0145. Variant C82U A111G C150U C169A U176G has a reverse-splicing fitness of 0.00543. Variant C82U A111G A145C C150A C169U U176C has a reverse-splicing fitness of 0.00672. Variant C82U A111G A145C C150A C169U U176A has a reverse-splicing fitness of 0.0133. For C82U A111G A145C C150A C169U U176G, the reverse-splicing fitness was 0.00504. In the case of C82U A111G C150A C169U U176A, the reverse-splicing fitness is reported as 0.0155. Work on C82U A111G C150A C169U U176G yielded a reverse-splicing fitness of 0.00684. Work on C82U A111G C150A C169U U176C yielded a reverse-splicing fitness of 0.0161. C82U A111G C169A U176A gave a reverse-splicing fitness of 0.0124. In the case of C82U A111G C169A U176G, the reverse-splicing fitness is reported as 0.00438. With C82U A111G C169A U176C the reverse-splicing fitness was 0.0146. C82U A111G A145G C150U C169G U176A showed a reverse-splicing fitness of 0.0169. Variant C82U A111G A145G C150U C169G U176G has a reverse-splicing fitness of 0.00547. C82U A111G A145G C150U C169G U176C gave a reverse-splicing fitness of 0.0174. With C82U A111G A145U C150G C169G U176G the reverse-splicing fitness was 0.00515. Variant C82U A111G A145U C150G C169G U176A has a reverse-splicing fitness of 0.00668. C82U A111G A145U C150G C169G U176C gave a reverse-splicing fitness of 0.00527. With C82U A111G A145G C150G C169A U176G the reverse-splicing fitness was 0.00737. With C82U A111G A145G C150G C169A U176A the reverse-splicing fitness was 0.012. Work on C82U A111G A145G C150G C169A U176C yielded a reverse-splicing fitness of 0.0111. C82U A111U A120C A145C U176C gave a reverse-splicing fitness of 0.0132. With C82U A111U A120C A145C U176A the reverse-splicing fitness was 0.0125. With C82U A111U A120C A145C U176G the reverse-splicing fitness was 0.00539. Variant C82U A111U A120C A145C C169A U176G has a reverse-splicing fitness of 0.00392. Variant C82U A111U A120C A145C C169A U176A has a reverse-splicing fitness of 0.00868. Variant C82U A111U A120C A145C C169A U176C has a reverse-splicing fitness of 0.00567. C82U A111G A145C C150U C169U U176G gave a reverse-splicing fitness of 0.00493. For C82U A111G A145C C150U C169U U176C, the reverse-splicing fitness was 0.00834. C82U A111G A145C C150U C169U U176A gave a reverse-splicing fitness of 0.0119. For C82U A111U A120C A145C C150A C169A, the reverse-splicing fitness was 0.00749. C82U A111U A120C A145C C150A C169G gave a reverse-splicing fitness of 0.00632. In the case of C82U A111U A120C A145C C150A C169U, the reverse-splicing fitness is reported as 0.0102. Work on C82U A111G A145C U176A yielded a reverse-splicing fitness of 0.178. With C82U A111G A145C U176C the reverse-splicing fitness was 0.242. With C82U A111G A145C U176G the reverse-splicing fitness was 0.0614. C82U A111G C150A C169A U176C gave a reverse-splicing fitness of 0.0195. C82U A111G C150A C169A U176G showed a reverse-splicing fitness of 0.00533. Work on C82U A111G C150A C169A U176A yielded a reverse-splicing fitness of 0.0183. For C82U A111G A145G C169A, the reverse-splicing fitness was 0.00814. With C82U A111G A145G C169G the reverse-splicing fitness was 0.00933. Work on C82U A111G A145G C169U yielded a reverse-splicing fitness of 0.0113. C82U A111G A145C C169G U176C showed a reverse-splicing fitness of 0.0119. C82U A111G A145C C169G U176A showed a reverse-splicing fitness of 0.0196. For C82U A111G A145C C169G U176G, the reverse-splicing fitness was 0.00461. Work on C82U A111G A145G C150G U176C yielded a reverse-splicing fitness of 0.0206. C82U A111G A145G C150G U176G showed a reverse-splicing fitness of 0.00618. With C82U A111G A145G C150G U176A the reverse-splicing fitness was 0.00967. Work on C82U A111U A120C A145C C150G C169A yielded a reverse-splicing fitness of 0.00832. With C82U A111U A120C A145C C150G C169G the reverse-splicing fitness was 0.00637. Work on C82U A111U A120C A145C C150G C169U yielded a reverse-splicing fitness of 0.00848. Variant C82U A111U A120C A145C C150G C169A U176G has a reverse-splicing fitness of 0.00527. Variant C82U A111U A120C A145C C150G C169A U176C has a reverse-splicing fitness of 0.00591. Variant C82U A111U A120C A145C C150G C169A U176A has a reverse-splicing fitness of 0.00641. C82U A111G C150G U176A showed a reverse-splicing fitness of 0.00888. C82U A111G C150G U176C showed a reverse-splicing fitness of 0.0178. For C82U A111G C150G U176G, the reverse-splicing fitness was 0.00391. Variant C82U A111G A145G U176G has a reverse-splicing fitness of 0.048. Work on C82U A111G A145G U176C yielded a reverse-splicing fitness of 0.265. Work on C82U A111G A145G U176A yielded a reverse-splicing fitness of 0.201. C82U A111U A120C A145C C150U C169A showed a reverse-splicing fitness of 0.00709. For C82U A111U A120C A145C C150U C169U, the reverse-splicing fitness was 0.00899. Variant C82U A111U A120C A145C C150U C169G has a reverse-splicing fitness of 0.00639. C82U A111G A145G C150U C169A gave a reverse-splicing fitness of 0.00982. C82U A111G A145G C150U C169G showed a reverse-splicing fitness of 0.00979. Variant C82U A111G A145G C150U C169U has a reverse-splicing fitness of 0.0111. With C82U A111U the reverse-splicing fitness was 0.327.

— the RNAGym collection of RNA variant scans (doi:10.1093/molbev/msab373)
